Laboratory results: the supplement of paper PMC9170038

Test system: MS2 coat protein
Assay: apparent KD of MS2 coat protein; designed switch direction (-1 OFF switch, 1 ON switch): -1; higher = weaker reporter binding
Outline: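 Designed RNA switches with common flanks were made on Illumina chips by stalled E. coli RNA polymerase. Titration with SNAP-549-labelled MS2 coat protein doubled from 0.7 or 1.5 nM up to 3 µM. Apparent KD is each design's median over clusters after curve-fitting normalised fluorescence.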

[1] = input ligand: microRNA oligo, concentration not stated
[2] = Eterna round: R95, input ligand: FMN 200 uM
[3] = Eterna round: R95, input ligand: microRNA oligo, concentration not stated
[4] = Eterna round: R95, input ligand: none

Sequence	apparent KD of MS2 coat protein (input ligand: FMN 200 uM)	apparent KD of MS2 coat protein [1]	apparent KD of MS2 coat protein (input ligand: none)	apparent KD of MS2 coat protein [2]	apparent KD of MS2 coat protein [3]	apparent KD of MS2 coat protein [4]
UAACGGGCUUCUUCGUUUACAACAUGAGGAUCACCCAUGUUCGAGGAUAUCCACUAAGCUCUUCAGGAGAAGGCGAACAUAAUG [Rizaoran] (Eterna round: R96, puzzle: Exclusion NG 3)	37.2 nM	15.1 nM	14.6 nM	–	–	–
UAAGAUUACCGAGGAUAUGCUGGUUUCUAUUAAGCAGAAGGCGGACUCAACAUGAGGAUCACCCAUGUAAGAAGGGUAUUAGAU [Ex NG1 #9] (Eterna round: R96, puzzle: Exclusion NG 1)	89.8 nM	82.1 nM	94.8 nM	–	–	–
UAAGAUUACCGAGGAUAUGCUGGUUUCUCUCAAGCAGAAGGCGGACUCAACAUGAGGAUCACCCAUGUAAGACGGGUACUAGAU [Ex NG1 #11] (Eterna round: R96, puzzle: Exclusion NG 1)	133 nM	76.6 nM	574 nM	–	–	–
UAAGGACAUGAGGAUCACCCAUGUUAGGAUAUGCCGAGGGAGACCCGUGUUGACACUUGCAGAAGGAGUAUGGG [Eternabot (L1) Solution 25] (Eterna round: R97, puzzle: Exclusion 1)	70.4 nM	–	86.2 nM	–	–	–
UAAGUGUGAGGAUAUGGUAAAGAUAGAAUGAUGAAAGAACUCCAGAAGGCACAUGAGGAUCACCCAUGUAGAUG [Mat - Exclusion 4 - Mod of JL - D24] (puzzle: Exclusion 4)	–	–	–	60.2 nM	30.8 nM	31.9 nM
UAAUACAAGUAGAGAUUCUACAUGAGGAUCACCCAUGUGCUCGUCUUAUAAAGUACUAUCACGAAAGUGAUAGUACA [Mat - Sensor v3 - turn-off var 1 - Eli Mod - D97] (Eterna round: R96, puzzle: Sensor v3, turn-off variant 1)	22.1 nM	124 nM	22.4 nM	–	–	–
UAAUACAAGUAGAGAUUCUACAUGAGGAUCACCCAUGUGCUCGUCUUAUAAAGUACUAUCACGAAAGUGAUAGUACA [Mat - Sensor v3 - turn-off var 1 - Eli Mod - D97] (puzzle: Sensor v3, turn-off variant 1)	–	–	–	23 nM	322 nM	19.7 nM
UAAUACAAGUAGAGAUUCUACAUGAGGAUCACCCAUGUGCUCGUCUUAUAAAGUACUAUCACGAAAGUGAUAGUACU [Mat - Sensor v3 - turn-off var 1 - Eli Mod - D98] (puzzle: Sensor v3, turn-off variant 1)	–	–	–	18.3 nM	192 nM	17.4 nM
UAAUAGCAAGCAAGAUCCCACAUGAGGAUCACCCAUGUGCUCGUCUUAUAAGGUACUGUGACGAAAGUCACGGUACC [Sensor 3, v1 - 98] (puzzle: Sensor v3, turn-off variant 1)	–	–	–	45.5 nM	535 nM	47.5 nM
UAAUAUCUGCAGGAUAUCGGUGUAGCACGCGUAUGAGAAGGGCAGACAUGAGGAUCACCCAUGUAUAGGGUCCG [BotMod 1 - Jieux - Exclusion 6] (Eterna round: R97, puzzle: Exclusion 6)	246 nM	–	49.4 nM	–	–	–
UAAUUGAUUAAUAAAUAAUACAUGAGGAUCACCCAUGUAGAUCCUACAUACCAUUUAAGUAGCUCGUCUUAUUAUUA [Sensor-V1 #62] (Eterna round: R97, puzzle: Sensor, turn-off variant 1)	217 nM	–	213 nM	–	–	–
UACAUGAGGAUCACCCAUGUUUUGUCGUGUAUGGUAUUUAUCUAGGAUAUCAAUGGAUUUAUUUAUGAGAAGGAGAAUAUUAAU [JMF's solution 38] (Eterna round: R96, puzzle: Exclusion NG 3)	39.6 nM	25.6 nM	32.3 nM	–	–	–
UACAUGAGGAUCACCCAUGUUUUGUCGUGUAUGGUAUUUAUCUAGGAUAUCAAUGUAUUUAUUUAUGAGAAGGAGAAUAUUAAU [JMF's solution 12] (Eterna round: R96, puzzle: Exclusion NG 3)	–	29.6 nM	–	–	–	–
UACAUGAGGAUCACCCAUGUUUUGUCGUGUAUGGUAUUUAUCUAGGAUAUCAAUUUGUGUAUUUAUGAGAAGGAGAAUAUUAAU [JMF's solution 68] (Eterna round: R96, puzzle: Exclusion NG 3)	44 nM	29.5 nM	45.8 nM	–	–	–
UACAUGAGGAUCACCCAUGUUUUGUCGUGUAUGGUAUUUAUCUAGGAUAUCAUAUUAUUUAGUUAUGAGAAGGAGAAUAUUAAU [JMF's solution 80] (Eterna round: R96, puzzle: Exclusion NG 3)	24.9 nM	12.7 nM	19.3 nM	–	–	–
UACAUGAGGAUCACCCAUGUUUUGUCGUGUAUGGUAUUUAUCUAGGAUAUCAUGUUAUUUAGUUAUGAGAAGGAGAAUAUUAAU [JMF's solution 81] (Eterna round: R96, puzzle: Exclusion NG 3)	45.6 nM	31.3 nM	38.5 nM	–	–	–

Sequence	apparent KD of MS2 coat protein (input ligand: FMN 200 uM)	apparent KD of MS2 coat protein [1]	apparent KD of MS2 coat protein (input ligand: none)	apparent KD of MS2 coat protein [2]	apparent KD of MS2 coat protein [3]	apparent KD of MS2 coat protein [4]
UACAUGAGGAUCACCCAUGUUUUGUCGUGUAUGGUAUUUAUCUAGGAUAUCAUUAUAUUUAUUUAUGAGAAGGAGAAUAUUAAU [JMF's solution 97] (Eterna round: R96, puzzle: Exclusion NG 3)	29.9 nM	21.9 nM	27.6 nM	–	–	–
UACCUGAGGCAAAGCUUUAGGCUUACAUGAGGAUCACCCAUGUAGGAUAUGGUAGGCAAAGCUUACCAGAAGGACAUGGAAAUU [Mat - Exclusion NG 3 - Mod of JL - D23] (Eterna round: R96, puzzle: Exclusion NG 3)	398 nM	68.1 nM	86.8 nM	–	–	–
UAGAAAGGUAAGGAUAUCCUUGAGAAAGAAAGAGGAGAAGGUACCACAUGAGGAUCACCCAUGUGGCUCUCAAA [jl-ex6-4.57 Nando mod] (Eterna round: R97, puzzle: Exclusion 6)	15.2 nM	–	13.7 nM	–	–	–
UAGAAGCUCAGGGAGUGAGACAUGAGGAUCACCCAUGUGGUGGUAGGGAACAAGCUUUUUGCACGUACUUAUGAGGA [JR_SV3TOV1_Sub006] (puzzle: Sensor v3, turn-off variant 1)	–	–	–	367 nM	134 nM	189 nM
UAGAAGGUAGGAUAUACGAAUAAAUAGGGUAGUAAGAAGACACAUGAGGAUCACCCAUGUAGAAGGACCAAGAU [Mat - Exclusion 2 - Mod of my Tesla design - D33] (puzzle: Exclusion 2)	–	–	–	33.5 nM	19.4 nM	20.6 nM
UAGAUGGGAGGAUAUACGUAGAUGCAGGUUCGUGUGGUGCUACAUGAGGAUCACCCAUGUAGAAGGCCCGUCUU [JL-ex2-2.29 Mayanne mod] (Eterna round: R96, puzzle: Exclusion 2)	69.4 nM	14.1 nM	18.4 nM	–	–	–
UAGAUGGGAGGAUAUACGUAGAUGCAGGUUCGUGUGGUGCUACAUGAGGAUCACCCAUGUAGAAGGCCCGUCUU [JL-ex2-2.29 Mayanne mod] (puzzle: Exclusion 2)	–	–	–	–	13.6 nM	–
UAGAUGGGAGGAUAUACGUAGAUGCAGGUUCGUGUGGUGCUACAUGAGGAUCACCCAUGUAGAAGGCCCGUCUU [Resubmit R3 JL-ex2-2.29] (Eterna round: R97, puzzle: Exclusion 2)	77.4 nM	–	18.4 nM	–	–	–
UAGGUACAUGAGGAUCACCCAUGUGAGGAUAUAGAUGAAGAUUGCGAGAGGGAGAGGACUAGAAGGCACAGUGG [JR_Exclu1_Sub036] (puzzle: Exclusion 1)	–	–	–	–	30.9 nM	–
UAGGUACAUGAGGAUCACCCAUGUGAGGAUAUAGUUGAAGAUUGCGAGAGGGAGAGGACUAGAAGGCACAGUGG [JR_Exclu1_Sub037] (puzzle: Exclusion 1)	–	–	–	–	40.9 nM	–
UAGGUACGAGGAUAUACAUAGAUACAGACACAUGUAGAUGUACAUGAGGAUCACCCAUGUAGAAGGCGUAUAUA [Mat - Same state - Mayanna Mod - D110] (Eterna round: R96, puzzle: Exclusion 2)	–	60.7 nM	–	–	–	–
UAGUUACAUGAGGAUCACCCAUGUGAGGAUAUGAGUCAGUCACGGUGACGUGGCUGACUCAGAAGGCACAAAGG [Mat - Exclusion 1 - JL Mod - D38] (Eterna round: R97, puzzle: Exclusion 1)	430 nM	–	126 nM	–	–	–
UAUAAACAUGAGGAUCACCCAUGUGAGGAUAUCAAAACCAGAGCGGAUCUCUGGCCCAUGAGAAGGUGCAUGGU [ElNandoxlusion 8 - Jieux - Exclusion 1] (Eterna round: R97, puzzle: Exclusion 1)	137 nM	–	26.2 nM	–	–	–
UAUAAGAUAGGAUAUACAGGCCCGUCUUCAUAUCGAUCCCGACAUGAGGAUCACCCAUGUAGAAGGAUCGUGAG [Mod 21 - Jieux - Exclusion 2] (Eterna round: R97, puzzle: Exclusion 2)	13.8 nM	–	13.7 nM	–	–	–
UAUAAUUUUUUUUUUUUACAAGCUUUUUGCUCGUCUUAUACAUGAGGAUCACCCAUGUGGGUGAAAGAUAGAUUGUC [JMF's solution 2] (puzzle: Sensor v3, turn-off variant 2)	–	–	–	37.7 nM	15.5 nM	41.2 nM
UAUACCCGAGGAUAUACAUGAGGAUCACCCAUGUAGUGAAAGCUCUAAGAGCGCUCAGGUAGAAGGCGGAUUAA [EX3 A.9] (Eterna round: R97, puzzle: Exclusion 3)	24.9 nM	–	18.8 nM	–	–	–
